Key:
Experiment in all cases: peptide array
Peptide_007 = target: T1, Peptide_007 (human)
T1 peptide: MHQDQEGDTDAGLKE
In short: (§1)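 Overlapping 15-mer peptides (5-aa offset) spanning human 2N4R Tau spotted in triplicate on slides; antibodies bound 2 h at room temperature in 3% BSA-TBST (chimeric IgG 5 μg/mL; mouse IgG 30 μg/mL). Detection 1 h with fluorescent anti-human (568 nm) or anti-mouse (647 nm) secondary; fluorescence imaging aligned to array map.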

Peptide_022 = target: T2, Peptide_022 (human)
T2 peptide: AGIGDTPSLEDEAAG
In short: as §1

Peptide_016 = target: T3, Peptide_016 (human)
T3 peptide: TAPLVDEGAPGKQAA
In short: as §1

Peptide_013 = target: T4, Peptide_013 (human)
T4 peptide: SETSDAKSTPTAEDV
In short: as §1

Peptide_035 = target: T5, Peptide_035 (human)
T5 peptide: IPAKTPPAPKTPPSS
In short: as §1

Peptide_032 = target: T6, Peptide_032 (human)
T6 peptide: GAAPPGQKGQANATR
In short: as §1

Peptide_029 = target: T7, Peptide_029 (human)
T7 peptide: KAKGADGKTKIATPR
In short: as §1

Peptide_028 = target: T8, Peptide_028 (human)
T8 peptide: GSDDKKAKGADGKTK
In short: as §1

Peptide_027 = target: T9, Peptide_027 (human)
T9 peptide: SKDGTGSDDKKAKGA
In short: as §1

Peptide_040 = target: T10, Peptide_040 (human)
T10 peptide: GYSSPGSPGTPGSRS
In short: as §1

Peptide_039 = target: T11, Peptide_039 (human)
T11 peptide: SGDRSGYSSPGSPGT
In short: as §1

Peptide_037 = target: T12, Peptide_037 (human)
T12 peptide: TPPSSGEPPKSGDRS
In short: as §1

Peptide_057 = target: T13, Peptide_057 (human)
T13 peptide: KLDLSNVQSKCGSKD
In short: as §1

Peptide_049 = target: T14, Peptide_049 (human)
T14 peptide: SRLQTAPVPMPDLKN
In short: as §1

Peptide_048 = target: T15, Peptide_048 (human)
T15 peptide: PSSAKSRLQTAPVPM
In short: as §1

Peptide_070 = target: T16, Peptide_070 (human)
T16 peptide: FKDRVQSKIGSLDNI
In short: as §1

Peptide_069 = target: T17, Peptide_069 (human)
T17 peptide: SEKLDFKDRVQSKIG
In short: as §1

Peptide_068 = target: T18, Peptide_068 (human)
T18 peptide: QVEVKSEKLDFKDRV
In short: as §1

Peptide_066 = target: T19, Peptide_066 (human)
T19 peptide: GNIHHKPGGGQVEVK
In short: as §1

Peptide_065 = target: T20, Peptide_065 (human)
T20 peptide: KCGSLGNIHHKPGGG
In short: as §1

Peptide_064 = target: T21, Peptide_064 (human)
T21 peptide: SKVTSKCGSLGNIHH
In short: as §1

Peptide_060 = target: T22, Peptide_060 (human)
T22 peptide: NIKHVPGGGSVQIVY
In short: as §1

Peptide_082 = target: T23, Peptide_082 (human)
T23 peptide: RHLSNVSSTGSIDMV
In short: as §1

Peptide_080 = target: T24, Peptide_080 (human)
T24 peptide: SPVVSGDTSPRHLSN
In short: as §1

Peptide_079 = target: T25, Peptide_079 (human)
T25 peptide: EIVYKSPVVSGDTSP
In short: as §1

Peptide_078 = target: T26, Peptide_078 (human)
T26 peptide: TDHGAEIVYKSPVVS
In short: as §1

Peptide_075 = target: T27, Peptide_075 (human)
T27 peptide: IETHKLTFRENAKAK
In short: as §1

Peptide_072 = target: T28, Peptide_072 (human)
T28 peptide: SLDNITHVPGGGNKK
In short: as §1

Peptide_071 = target: T29, Peptide_071 (human)
T29 peptide: QSKIGSLDNITHVPG
In short: as §1

Peptide_087 = target: T30, Peptide_087 (human)
T30 peptide: TLADEVSASLAKQGL
In short: as §1

Peptide_086 = target: T31, Peptide_086 (human)
T31 peptide: ATLADEVSASLAKQG
In short: as §1

Measured: binding result

B1: chimeric IgG clone 1A1 (antibody, V domains shown)
VH: EVQLQQSGAELVRPGASVRLSCTASGFNIKDSLMHWLKQRPEQGLEWIGWIDPEDGETKYAPKFQDKATITADTSSNTAYLQLSSLTSEDTAIYYCTRRDWEGPWGQGTLVTVSA
VL: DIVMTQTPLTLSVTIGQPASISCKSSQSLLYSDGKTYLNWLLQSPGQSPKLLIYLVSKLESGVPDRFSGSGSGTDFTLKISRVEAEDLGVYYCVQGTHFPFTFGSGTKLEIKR
notes: mouse-human chimeric IgG from HEK293; also called anti-Tau 1A1; anti-Tau^1A1
binds: Peptide_070
no binding (tested: 5 ug/mL): all other assays above

B2: chimeric IgG clone 1G7 (antibody, V domains shown)
VH: EVQLQQSGAEVVRPGASVKLSCTTSGFNIKDSLMHWLKQRPEQGLEWIGWIDPEDGETKYAPKFQDKATITADTSSNTAYLQLSSLTSGDTAIYYCARRDWEGPWGQGTLVTVSA
VL: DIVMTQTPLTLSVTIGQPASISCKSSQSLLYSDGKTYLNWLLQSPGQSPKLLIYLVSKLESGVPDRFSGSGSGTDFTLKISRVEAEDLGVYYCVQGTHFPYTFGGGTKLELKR
notes: mouse-human chimeric IgG from HEK293
binds: Peptide_070
no binding (tested: 5 ug/mL): all other assays above

B3: chimeric IgG clone 1A5 (antibody, V domains shown)
VH: EVQLQQSGAELVRPGASVKLSCTASGFNIKDSLIHWVKQRPEQGLEWIGWIDPEDGETKYAPKFQDKATKTADTSSNTAYLQLSSLTSEDTAIYYCASGEWDYWGQGTSVTVSS
VL: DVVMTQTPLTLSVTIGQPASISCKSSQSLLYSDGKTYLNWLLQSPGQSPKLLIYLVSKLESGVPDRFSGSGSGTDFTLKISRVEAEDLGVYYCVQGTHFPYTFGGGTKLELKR
notes: as for B2
binds: Peptide_070
no binding (tested: 5 ug/mL): all other assays above

B4: chimeric IgG clone 1D10 (antibody, V domains shown)
VH: EVQLQQSGAELVRPGASVKLSCTASGFNIKDSLMHWMKQRPEQGLEWIGWIDPEDGETKYAPKFQDKATLTADTSSNAAYLQLSSLTSEDTAIYYCVRGDWDGGYWGQGTTLTVSS
VL: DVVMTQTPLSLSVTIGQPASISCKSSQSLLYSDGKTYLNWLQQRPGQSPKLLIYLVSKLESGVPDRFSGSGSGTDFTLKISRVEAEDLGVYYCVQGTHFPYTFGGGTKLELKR
notes: as for B2
binds: Peptide_070
no binding (tested: 5 ug/mL): all other assays above
